Results as given in the DeepSol protein solubility set.

assay: soluble on expression in E. coli; label from the status in PepcDB or PDB records

| Sequence | soluble on expression in E. coli |
| --- | --- |
| MGSDKIHHHHHHMKETSRKSGASAAKGKVIITCAVTGAIHTPTMSPYLPITPDQIASEAIAAAQAGAAILHLHARDPETGKPDQTPEAFARFLPRVKQGTNAAINITTGGSPYMKVEERVRPAAQFKPEVASLNMGSINFGLYHLADKYETFKFDWEKPHLEATRDLVFRNSFKDIEYILATCYDNGTRFEFECYDIAHLYNLSHFADRGLVKPPFFVQSVFGLLGGIGTHPEDVAHMKRTADRLFGDQFRWSVLGAGASQLRIAAQSAALGGNIRVGLEDSLWAGKGKLAKSNAEQVVLARKIIEGLGMEVATPDEAREILSLKGGDKVAF | not soluble |
| MKPVKAKCEVCEHMFRVQMLTARLSNRVDKHYFICPSCKTEFISYYSNREMRQLQKEISNLYKGFRTCYTKEQAKVIQAKIDKKDLEFKWLRDILRTEIENNLPN | not soluble |
| EGSENLFITGDNLEALKLLQESYLGKIDMIYIDPPYNTGKDFVYQDNFKKTKKENDLSEGILDEEGDRLVKNEKSNGRYHSDWLTMIYPRLKLARNLLSDSGIIFVSIDENEIANLELLLTEIFGENNLAGTIVWDKRNPKGDSKGVSMQHEYIVAAAKNINIFSEFKEFKRPKKNAEIIL | not soluble |
| MTTPTFDINAAIQALREGKDLTGKDGILTPLIKQLTEAALAAELDGHLASTEGANRKNGKTTKTVKSPLGNFELNTPRDRAGTFEPQLVKKHQTQLTDEMERKIIGLFSLGSSYQDIRAHIEDMYGMSVSNGTVNAITDKLLPELQAWRERELEPLYPVIWLDAIHYKIKENGRFISKAVYTILALNVEGKKELLGLYLSDNEGAHHWLSVLTDLYNRGVKDILIACVDGLKGFPEAIATIYPQTEVQLCVIHQIRNSMKYVASKHQKAFMADLKCVYKAATLNAAEMALDELETKWGDKYPVVIKSWRNKWALLSVYFKYPDYVRTAIYTTNAVEAVHRQFRKLTKTKGGFANENSLLKLLYAGILKASERWTHPIQNWNLTLSQLSIHFEGRLENHIDL | not soluble |
| MGRKWNNIKEKKASKDANTSRIYAKFGREIYVAAKQGEPDPESNQALKVVLERAKTYSVPKNIIERAIEKAKGGAEENYDELRYEGFGPNGSMIIVDALTNNVNRTAPEVRAAFGKNGGNMGVSGSVAYMFDATAVIVVEGKTADEALEILMEADVDVRDILEEDDSAKSCYAEPDQFHAVQEAFKNAGVEEFTVAELQMLAQSEVTLPDDAKEQFEKLIDALEDLEDVQQVYHNVDLGELEHHHHHH | soluble |
| MGSDKIHHHHHHMAKVEELTPQQLSETDLKPRGRVYPSPISWRDQFLYQLVLDRFSDDNENQRELFDHTNLAKFQVKDKAGWMAAGTKFVGGTLRGIKSKLDYLQRLGVTTLWINPPWQQRSELEAYHSDRIQEFLDIDPHFGTRQDLRDLIDAAHDRRMYVILDVIYNQNADNWFHRNDVIAALARVYQYWIALSDCDGLRIDSLKHVSPEDSRKFCTAIREYAESIDKDNFLLTGEITSGSMAGAYIDIIARNFSAVLDIAQTPNELAAFAKGLVHPKQFFDLYSENNLAGEYRQIGTYHVSILDDYEMSFRTNKQRFAAYSNVPHLYEQVAHAVGVQLTMPGIPAIYYGTEQAFDGNEGYHDYSIEGRKFAEDRYIKEAMFGGAFGAFQTADCHFFDIDHPTYLRIAAIARIRNSHDKIGKALRRGHHYLRETSFFNSPFSIPGQGELVAWSQTLFDTEVLMVLNTNGLENRGAEVTVDTYMHPQDSTMTFLYKSDWSDSYLRHPPRDQTVAVQHHNDRRATVRIDLPPSGMAILA | not soluble |
| MGSSHHHHHHSSGLVPRGSHMASMTGGQQMGRGSMTTHLQAKATLHNGVEMPWFGLGVFQVEEGSELVNAVKTAIVHGYRSIDTAAIYGNEAGVGEGIREGIEEAGISREDLFITSKVWNADLGYEETLAAFETSLSKLGLDYLDLYLIHWPVEGKYKEAWRALETLYKEGRIKAIGVSNFQIHHLEDLMTAAEIKPMINQVEFHPRLTQKELIRYCQNQGIQMEAWSPLMQGQLLDHPVLADIAQTYNKSVAQIILRWDLQHGIITIPKSTKEHRIKENASVFDFELTQDDMNRIDALNENLRVGPDPDNFDF | soluble |
| MAHHHHHHMQLPRKRGTQRRRAHRRNWRDCTSLCTMRGGAMRWNFRTAWSERKQGTGMGVHEGKPEQSWTYKKADDAIKKNDAVQQFGAAPPVLMVLASDKGWPYSWNTIQDLPKDFFVNCEVDRAWQIVKGDLTAWFSPHGGTDFTPKRRVLIGTPGIGKSVAAGSYLLY | not soluble |
| SEHPQPVTTQIEKSVNTALNKNYVFNKADYQYTLTNPSLGKIVGGILYPNATGSTTVKISDKSGKIIKEVPLSVTASTEDNFTKLLDKWNDVTIGNYVYDTNDSNMQKLNQKLDETNAKNIEAIKLDSNRTFLWKDLDNLNNSAQLTATYRRLEDLAKQITNPHSTIYKNEKAIRTVKESLAWLHQNFYNVNKDIEGSANWWDFEIGVPRSITGTLSLMNNYFTDAEIKTYTDPIEHFVPDAEYFRKTLVNPFKALGGNLVDMGRVKIIEGLLRKDNTIIEKTSHSLKNLFTTATKAEGFYADGSYIDHTNVAYTGAYGNVLIDGLTQLLPIIQETDYKISNQELDMVYKWINQSFLPLIVKGELMDMSRGRSISREAASSHAAAVEVLRGFLRLANMSNEERNLDLKSTIKTIITSNKFYNVFNNLKSYSDIANMNKLLNDSTVATKPLKSNLSTFNSMDRLAYYNAKKDFGFALSLHSKRTLNYEGMNDENTRGWYTGDGMFYIYNSDQSHYSNHFWPTVNPYKMAGTTEKDAKREDTTKEFMSKHSKDAKEKTGQVTGTSDFVGSVKLNDHFALAAMDFTNWDRTLTAQKGWVILNDKIVFLGSNIKNTNGIGNVSTTIDQRKDDSKTPYTTYVNGKTIDLKQASSQQFTDTKSVFLESKEPGRNIGYIFFKNSTIDIERKEQTGTWNSINRTSKNTSIVSNPFITISQKHDNKGDSYGYMMVPNIDRTSFDKLANSKEVELLENSSKQQVIYDKNSQTWAVIKHDNQESLINNQFKMNKAGLYLVQKVGNDYQNVYYQPQTMTKTDQLAI | soluble |
| MGHHHHHHSHMDKNVISVKIMEEKRDESTGVIYRKRIAICQNVVPEILRKVSILKVPNIQLEEESWLNPRERNMAIRSHCLTWTQYASMKEESVFRESMENPNWTEFIQRGRISITGVGFLNCVLETFASTFLRQGAQKGIRIMEMLLKEQCGAPLAE | not soluble |
| MGSDKIHHHHHHMSDRLDEVDKRILYNLVRDARNTSAPDIADEVNVSAGTIRNRITHLEAAGIIRGYHAVVSYPQVGGRLTNLYICTSPVPDRDRLSKQVAEIPGVVSVRQLMKGRSNLHVTAVGDDMQELTRIANDLSAIGLDIEEENLLQSEEIRPYHEFGPDDSQDGHTIADFMELSGGAEVVELSVAADAEIAGHTLREANERGVIESDVLVVSIERDDEMLTPRGDTRVRPDDLVTVFCRGGISQETLSVFGKRGSATET | not soluble |
| AVEPKEDTITVTAAPAPQESAWGPAATIAARQSATGTKTDTPIQKVPQSISVVTAEEMALHQPKSVKEALSYTPGVSVGTRGASNTYDHLIIRGFAAEGQSQNNYLNGLKLQGNFYNDAVIDPYMLERAEIMRGPVSVLYGKSSPGGLLNMVSKRPTTEPLKEVQFKAGTDSLFQTGFDFSDSLDDDGVYSYRLTGLARSANAQQKGSEEQRYAIAPAFTWRPDDKTNFTFLSYFQNEPETGYYGWLPKEGTVEPLPNGKRLPTDFNEGAKNNTYSRNEKMVGYSFDHEFNDTFTVRQNLRFAENKTSQNSVYGYGVCSDPANAYSKQCAALAPADKGHYLARKYVVDDEKLQNFSVDTQLQSKFATGDIDHTLLTGVDFMRMRNDINAWFGYDDSVPLLNLYNPSSHHHHHHGSSVNTDFDFNAKDPANSGPYRILNKQKQTGVYVQDQAQWDKVLVTLGGRYDWADQESLNRVAGTTDKRDDKQFTWRGGVNYLFDNGVTPYFSYSESFEPSSQVGKDGNIFAPSKGKQYEVGVKYVPEDRPIVVTGAVYNLTKTNNLMADPEGSFFSVEGGEIRARGVEIEAKAALSASVNVVGSYTYTDAEYTTDTTYKGNTPAQVPKHMASLWADYTFFDGPLSGLTLGTGGRYTGSSYGDPANSFKVGSYTVVDALVRYDLARVGMAGSNVALHVNNLFDREYVASCFNTYGCFWGAERQVVATATFRF | soluble |
| MGLRPVSYTDSSVTPSVDGSIVLTAASVQSMPDSEESRLYGDDATYLAEGGRRQCPYTSNGPTFMETASFKKKRSKSADIWREDSLEFSLSDLSQEHLTSNEEILGSAEEKDCEEARGMETEASPRQLSTCQRANSLGDLYAQKNSGVKANGGPRNRFSSYCRNLVSDIPDLAKHKMPPAAAEETPPYSNYNTLPCRKSHCLSEGATNPQISLSKSMQGRRAKTTQDVNTGEGSEFADSGIEGATTDTDLLSRRSNATNSSYSPPTGRAFVGSDSGSSSTGDAARQGVYENFRRELEMSTTNSESLEEAGSAHSDEQSSGTLSSPGQSDILLTAAQGTVRKAGALAVKNFLVHKKNKKVESATRRKWKHYWVSLKGCTLFFYETDGRSGIDHNSVPKHAVWVENSIVQAVPEHPKKDFVFCLSNSLGDAFLFQTTSQTELENWITAIHSACAAAVARHHHKEDTLRLLKSEIKKLEQKIDMDEKMKKMGEMQLSSVTDSKKKKTILDQIFVWEQNLEQFQMDLFRFRCYLASLQGGELPNPKRLLAFASRPTKVAMGRLGIFSVSSFHALVAARTGEIGVRRRTQAMSRSASKRRSRFSSLWGLDTTSKKKQGRPTINQVFGEGTDAVKRSLEGIFDDTVPDGKREKEVVLPSVHQHNPDCDIWVHEYFTPSWFCLPNNQPALTVVRPGDTARDTLELICKTHQLDHSAHYLRLKFLMENRVQFYIPQPEEDIYELLYKEIEICPKVTQNIHIEKSDAAADNYGFLLSSVDEDGIRRLYVNSVKETGLASKKGLKAGDEILEINNRAAGTLNSSMLKDFLSQPSLGLLVRTYPEPEGGVELLENPPHRVDGPVDLGESPLAFLTSNPGHSLSSEQGSSAETAPEEGEGPDLESSDETDHSSKSTEQVAAFCRSLHEMSPSDSSPSPQDATSPQLATTRQLSDADKLRKVICELLETERTYVKDLNCLMERYLKPLQKETFLTQDELDVLFGNLTEMVEFQVEFLKTLEDGVRLVPDLEKLEKVDQFKKVLFSLGGSFLYYADRFKLYSAFCASHTKVPKVLVKAKTDTAFKAFLDAQNPRQQHSSTLESYLIKPIQRVLKYPLLLRELFALTDAESEEHYHLDVAIKTMNKVASHINEMQKIHEEFGAVFDQLIAEQTGEKKEVADLSMGDLLLHTSVIWLNPPASLGKWKKEPELAAFVFKTAVVLVYKDGSKQKKKLVGSHRLSIYEEWDPFRFRHMIPTEALQVRALPSADAEANAVCEIVHVKSESEGRPERVFHLCCSSPESRKDFLKSVHSILRDKHRRQLLKTESLPSAQQYVPFGGKRLCALKGARPAMSRAVSAPSKSLGRRRRRLARNRFTIDSDAISASSPEKEPQQPAGGGDTDRWVEEQFDLAQYEEQDDIKETDILSDDDEFCESLKGASVDRDLQEQLQAASISQRARGRRTLDSHASRMTQLKKQAALSGINGGLESASEEVIWVRREDFAPSRKLNTEI | soluble |
| MSLSRVFVIGAAGKVGQRLIKKLGDGGHEVIALHRKEEQSVLIKAAGALPLLANLVEMDAAALSSAMAGSDVVVFTAGAGGAGIELTNAIDGEGLKTSVAAAELAGVRRFLLVSAFPEAARGTDTSAGFENYMRVKKHADVCLASSELDWVILRPGTLVDSAGSGQVRAGLAIPYGDIPRDDVAAFLAALVDQPEISRQIIELTEGTTPVELAIKALGTREGHHHHHH | soluble |
